The assay addresses T1, μMASS^2A (rat).
T1 chain: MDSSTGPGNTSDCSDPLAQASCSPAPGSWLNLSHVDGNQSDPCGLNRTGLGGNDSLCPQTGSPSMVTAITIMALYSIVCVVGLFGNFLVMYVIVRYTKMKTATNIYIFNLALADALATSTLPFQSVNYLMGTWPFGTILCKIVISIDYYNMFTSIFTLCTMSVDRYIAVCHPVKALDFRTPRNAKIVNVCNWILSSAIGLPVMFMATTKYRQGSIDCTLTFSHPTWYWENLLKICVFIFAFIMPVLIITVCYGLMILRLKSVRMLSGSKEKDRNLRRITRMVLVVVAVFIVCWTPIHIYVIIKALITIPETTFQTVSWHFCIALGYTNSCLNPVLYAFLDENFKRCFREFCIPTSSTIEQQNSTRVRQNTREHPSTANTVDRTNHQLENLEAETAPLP
Nature of the assay: other fluorescence titration.

The molecule YGGFMTSEKSQTPLVTLFKNAIIKNAYKKGE (peptide, UniProt P01189 237-267, looked up) [β-endorphin] registered a Kd of 1180 nM.

Values taken from publication doi:10.1101/2022.06.01.494241 (bioRxiv, 2022).
